The target of the assay is T1, original peptide (Trichinella spiralis paramyosin-derived tetradecapeptide, …) (Trichinella spiralis).
T1 construct: also called Ts-pmy-derived peptide; original Ts-Pmy-derived peptide; source: synthetic peptide (solid-phase synthesis, GL Biochem; RP-HPLC purified up to 95%)
The assay is described as follows: MST. To be noted: both partners purified.

T1 sequence (P02748 22-559): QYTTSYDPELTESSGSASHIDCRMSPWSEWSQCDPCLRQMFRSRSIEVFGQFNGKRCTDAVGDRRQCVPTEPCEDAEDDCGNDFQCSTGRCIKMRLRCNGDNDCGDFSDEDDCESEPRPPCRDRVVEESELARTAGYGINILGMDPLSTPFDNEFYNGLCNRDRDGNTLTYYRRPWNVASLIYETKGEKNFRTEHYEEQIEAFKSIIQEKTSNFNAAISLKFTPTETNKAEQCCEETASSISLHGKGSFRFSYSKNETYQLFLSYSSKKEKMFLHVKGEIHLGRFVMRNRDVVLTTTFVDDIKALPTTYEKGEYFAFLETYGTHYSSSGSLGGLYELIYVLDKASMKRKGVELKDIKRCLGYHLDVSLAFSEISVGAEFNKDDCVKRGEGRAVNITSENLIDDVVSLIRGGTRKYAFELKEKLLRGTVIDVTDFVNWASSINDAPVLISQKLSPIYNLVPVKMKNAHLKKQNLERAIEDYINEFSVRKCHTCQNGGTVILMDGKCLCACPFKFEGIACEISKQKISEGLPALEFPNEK

B1: human complement component C9 (natural protein)
chain: not shown
modifications: fluorescent probe NT-647 bound covalently (in the MST assay)
notes: also called human C9
For the molecule B1, the binding result was “binds”.
